In patent US20250262210A1 (TRUSTEES OF COLUMBIA UNIVERSITY IN THE CITY OF NEW YORK, published 2025):

What was measured:
USP4 = biological target: T1, USP4 (human, UniProt Q13107 1-963, limits assumed); assay: IP/MS, LZTR1 R810W-FLAG, U87
T1 sequence (looked up): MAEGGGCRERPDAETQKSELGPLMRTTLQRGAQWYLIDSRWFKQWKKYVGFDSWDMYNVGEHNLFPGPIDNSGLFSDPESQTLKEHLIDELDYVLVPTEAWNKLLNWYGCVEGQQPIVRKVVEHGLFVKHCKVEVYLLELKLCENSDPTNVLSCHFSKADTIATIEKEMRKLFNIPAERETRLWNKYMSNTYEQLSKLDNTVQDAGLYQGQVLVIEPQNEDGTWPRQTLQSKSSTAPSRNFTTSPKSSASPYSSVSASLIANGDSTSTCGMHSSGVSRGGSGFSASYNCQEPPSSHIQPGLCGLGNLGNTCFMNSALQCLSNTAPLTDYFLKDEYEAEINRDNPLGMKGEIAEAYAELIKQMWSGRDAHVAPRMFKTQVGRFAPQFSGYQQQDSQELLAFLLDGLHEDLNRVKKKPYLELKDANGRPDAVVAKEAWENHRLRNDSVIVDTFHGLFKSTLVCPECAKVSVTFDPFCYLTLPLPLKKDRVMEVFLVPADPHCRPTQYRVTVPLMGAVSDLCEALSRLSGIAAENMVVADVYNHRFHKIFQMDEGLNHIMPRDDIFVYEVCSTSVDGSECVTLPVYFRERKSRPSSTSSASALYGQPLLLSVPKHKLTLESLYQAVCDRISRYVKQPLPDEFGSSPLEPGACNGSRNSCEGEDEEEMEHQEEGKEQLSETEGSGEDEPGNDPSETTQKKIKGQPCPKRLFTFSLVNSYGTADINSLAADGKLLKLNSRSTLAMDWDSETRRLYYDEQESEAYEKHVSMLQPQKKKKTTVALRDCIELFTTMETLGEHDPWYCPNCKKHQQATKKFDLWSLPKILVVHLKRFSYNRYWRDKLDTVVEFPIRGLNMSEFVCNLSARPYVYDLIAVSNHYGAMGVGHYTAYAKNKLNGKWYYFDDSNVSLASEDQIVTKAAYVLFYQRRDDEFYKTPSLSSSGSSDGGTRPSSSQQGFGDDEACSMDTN
Method in brief: (§1)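 Gel slices were reduced with 5 mM DTT, alkylated with 11 mM IAA and digested overnight at 37° C. with trypsin. Peptides were analysed on an Orbitrap Fusion Tribrid by LC-MS/MS.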

AMBRA1 = biological target: T2, AMBRA1 (human, UniProt Q9C0C7 1-1298, limits assumed); assay: IP/MS, LZTR1 R810W-FLAG, U87
T2 sequence (looked up): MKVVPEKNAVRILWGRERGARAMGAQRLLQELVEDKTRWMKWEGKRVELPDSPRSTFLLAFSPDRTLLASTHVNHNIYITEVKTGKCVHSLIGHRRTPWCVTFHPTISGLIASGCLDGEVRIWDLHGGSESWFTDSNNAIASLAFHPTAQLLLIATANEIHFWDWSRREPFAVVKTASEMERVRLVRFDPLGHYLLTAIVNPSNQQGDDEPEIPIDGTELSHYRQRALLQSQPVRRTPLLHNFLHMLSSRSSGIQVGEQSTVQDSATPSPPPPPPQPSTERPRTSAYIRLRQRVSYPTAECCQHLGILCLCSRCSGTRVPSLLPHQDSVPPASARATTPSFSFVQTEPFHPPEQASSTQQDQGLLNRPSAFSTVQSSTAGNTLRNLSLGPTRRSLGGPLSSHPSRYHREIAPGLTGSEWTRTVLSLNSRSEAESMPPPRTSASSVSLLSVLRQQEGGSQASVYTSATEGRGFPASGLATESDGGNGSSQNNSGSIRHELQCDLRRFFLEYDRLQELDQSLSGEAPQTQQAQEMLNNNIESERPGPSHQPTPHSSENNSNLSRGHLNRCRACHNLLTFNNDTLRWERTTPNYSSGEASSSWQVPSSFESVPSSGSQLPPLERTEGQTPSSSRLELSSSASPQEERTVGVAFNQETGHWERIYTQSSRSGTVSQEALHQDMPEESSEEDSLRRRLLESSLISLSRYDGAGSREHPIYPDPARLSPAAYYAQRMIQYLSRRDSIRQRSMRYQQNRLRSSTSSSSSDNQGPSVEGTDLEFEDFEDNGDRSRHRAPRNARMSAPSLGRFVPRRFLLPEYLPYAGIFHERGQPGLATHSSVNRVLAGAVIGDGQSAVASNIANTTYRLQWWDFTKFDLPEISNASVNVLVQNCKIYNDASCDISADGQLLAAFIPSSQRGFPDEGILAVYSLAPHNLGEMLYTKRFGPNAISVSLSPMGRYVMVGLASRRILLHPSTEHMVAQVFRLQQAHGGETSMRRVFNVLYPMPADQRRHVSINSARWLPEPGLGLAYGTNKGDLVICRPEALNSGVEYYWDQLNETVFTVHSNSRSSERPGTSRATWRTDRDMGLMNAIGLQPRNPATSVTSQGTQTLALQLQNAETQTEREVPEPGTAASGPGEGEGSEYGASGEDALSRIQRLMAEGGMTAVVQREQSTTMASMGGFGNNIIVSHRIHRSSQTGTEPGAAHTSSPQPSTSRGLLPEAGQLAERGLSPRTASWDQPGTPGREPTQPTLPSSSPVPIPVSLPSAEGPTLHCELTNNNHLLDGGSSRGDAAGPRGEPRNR
Method in brief: as §1

B1: LZTR1 R810W-FLAG (other, human, UniProt Q8N653 1-840, looked up)
chain: MAGPGSTGGQIGAAALAGGARSKVAPSVDFDHSCSDSVEYLTLNFGPFETVHRWRRLPPCDEFVGARRSKHTVVAYKDAIYVFGGDNGKTMLNDLLRFDVKDCSWCRAFTTGTPPAPRYHHSAVVYGSSMFVFGGYTGDIYSNSNLKNKNDLFEYKFATGQWTEWKIEGRLPVARSAHGATVYSDKLWIFAGYDGNARLNDMWTIGLQDRELTCWEEVAQSGEIPPSCCNFPVAVCRDKMFVFSGQSGAKITNNLFQFEFKDKTWTRIPTEHLLRGSPPPPQRRYGHTMVAFDRHLYVFGGAADNTLPNELHCYDVDFQTWEVVQPSSDSEVGGAEVPERACASEEVPTLTYEERVGFKKSRDVFGLDFGTTSAKQPTQPASELPSGRLFHAAAVISDAMYIFGGTVDNNIRSGEMYRFQFSCYPKCTLHEDYGRLWESRQFCDVEFVLGEKEECVQGHVAIVTARSRWLRRKITQARERLAQKLEQEAAPVPREAPGVAAGGARPPLLHVAIREAEARPFEVLMQFLYTDKIKYPRKGHVEDVLLIMDVYKLALSFQLCRLEQLCRQYIEASVDLQNVLVVCESAARLQLSQLKEHCLNFVVKESHFNQVIMMKEFERLSSPLIVEIVRRKQQPPPRTPLDQPVDIGTSLIQDMKAYLEGAGAEFCDITLLLDGHPRPAHKAILAARSSYFEAMFRSFMPEDGQVNISIGEMVPSRQAFESMLRYIYYGEVNMPPEDSLYLFAAPYYYGFYNNRLQAYCKQNLEMNVTVQNVLQILEAADKTQALDMKRHCLHIIVHQFTKVSKLPTLWSLSQQLLLDIIDSLASHISDKQCAELGADI
notes: Stably expressed in U87 cells by lentivirus; also called LZTR1-FLAG-R810W; LZTR1 RW; not shown: FLAG tag
USP4
  binding result: binds
AMBRA1
  binding result: binds
